Test results published in the supplement of paper PMC10567573.

B1: PTPRD (parent)
chain: FICQATGDPRPKIVWNKKGKKVSN
B2: PWWP2B (parent)
chain: TIRLRPRQVLCEKCKSTLSPPEAS

Variants of: B1
Experiment: protein stability index of a GFP-peptide fusion (GPS, HEK-293T) (PSI 1-6); higher = more stable
Settings: c terminus: a fixed tail appended
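Further: lentivirally expressed fusions sorted by FACS into six bins by GFP to DsRed ratio, PSI derived from sequencing read proportions per bin multiplied by bin number.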

Protein stability index: each site, then its substitutions
V22: I 2.17; K 2.66; L 2.36; M 2.35; N 2.16; P 2.62; Q 2.47; R 2.04; S 2.41; T 2.29; W 2.35; Y 2.47
S23: A 2.49; C 2.69; D 2.52; E 2.72; F 2.31; G 2.28; H 2.37; I 1.84; K 2.52; L 2.14; M 2.29; N 2.12; P 2.15; Q 2.07; R 2.08; T 2.59; V 2.4; W 2.28; Y 2
N24: A 1.97; C 2.23; D 2.05; E 2.37; F 1.89; G 2.22; H 2.17; I 2.73; K 1.85; L 1.44; M 1.4; P 2.31; Q 2.02; R 3.04; S 2.03; T 1.65; V 2.33; W 1.92; Y 2.08

Variants of: B2
Experiment: as above
Settings: c terminus: a fixed tail appended

Protein stability index, by site and new letter:
T1: A 2.59; C 2.91; D 3.76; E 3.55; F 1.72; G 3.09; H 2.8; I 2.44; K 2.98; L 2.28; M 2.23; N 3.63; P 3.43; Q 3.11; R 2.65; S 2.98; V 2.78; W 2.12; Y 1.76
I2: A 3.61; C 3.7; D 3.68; E 3.67; F 3.54; G 3.27; H 3.54; K 2.98; L 3.35; M 2.76; N 4.05; P 4.11; Q 3.63; R 3.11; S 3.64; T 3.85; V 3.24; W 3; Y 3.04
R3: A 3.69; C 2.61; D 3.82; E 4.37; F 2.02; G 3.09; H 3.09; I 3.04; K 3.99; L 2.71; M 3.14; N 3.8; P 3.81; Q 3.61; S 3.37; T 3.27; V 2.7; W 2.98; Y 2.82
L4: A 2.99; C 3.45; D 4.18; E 3.79; F 2.77; G 3.63; H 3.23; I 2.79; K 3.58; M 3.32; N 3.58; P 3.45; Q 3.04; R 3.03; S 3.6; T 3.85; V 3.22; W 2.31; Y 2.87
R5: A 3.34; C 2.77; D 3.73; E 4.03; F 3.19; G 3.37; H 3.16; I 2.93; K 2.96; L 2.91; M 3.22; N 2.78; P 3.54; Q 3; S 3.43; T 3.1; V 3.52; W 2.9; Y 2.73
P6: A 2.76; C 2.46; D 3.61; E 3.8; F 2.05; G 3.25; H 2.77; I 1.62; K 2.82; L 2.04; M 2.37; N 2.53; Q 3.02; R 2.52; S 3.1; T 3.09; V 2.19; W 2.05; Y 2.04
R7: A 3.48; C 3.2; D 3.85
